Results on 2 molecules are retold here after paper PMC3859847 (Biochemistry, 2013).

For assay [1], the target named is Glucokinase (Homo sapiens) (UniProt P35557). Particulars: cited from earlier work.
Assay [2] concerns the target T1, rat liver glucokinase regulatory protein (rat, UniProt Q07071 1-627).
T1 sequence: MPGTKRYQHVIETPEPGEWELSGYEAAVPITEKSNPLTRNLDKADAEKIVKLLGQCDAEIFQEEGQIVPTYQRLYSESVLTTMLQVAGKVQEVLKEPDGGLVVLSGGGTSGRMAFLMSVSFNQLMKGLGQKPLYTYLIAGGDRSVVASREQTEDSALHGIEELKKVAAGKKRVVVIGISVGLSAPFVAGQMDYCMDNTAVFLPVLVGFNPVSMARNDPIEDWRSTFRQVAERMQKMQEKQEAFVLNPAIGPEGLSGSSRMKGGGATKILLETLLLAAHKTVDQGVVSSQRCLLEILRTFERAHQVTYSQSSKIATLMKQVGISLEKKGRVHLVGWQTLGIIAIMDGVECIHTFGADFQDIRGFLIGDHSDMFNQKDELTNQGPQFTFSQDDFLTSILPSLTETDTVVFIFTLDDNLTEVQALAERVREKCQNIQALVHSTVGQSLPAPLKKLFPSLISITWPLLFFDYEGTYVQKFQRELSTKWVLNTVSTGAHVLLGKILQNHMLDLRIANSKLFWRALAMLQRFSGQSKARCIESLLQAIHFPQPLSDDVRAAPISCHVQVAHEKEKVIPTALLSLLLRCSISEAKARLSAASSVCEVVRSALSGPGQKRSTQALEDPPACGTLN
The experiment in a line: crystal structure.

Regarding GKRP (from UniProt Q07071), in assay [1], the Kd is 1000 nM.

B1: human pancreatic glucokinase (enzyme)
chain: DDRARMEAAKKEKVEQILAEFQLQEEDLKKVMRRMQKEMDRGLRLETHEEASVKMLPTYVRSTPEGSEVGDFLSLDLGGTNFRVMLVKVGEGEEGQWSVKTKHQMYSIPEDAMTGTAEMLFDYISECISDFLDKHQMKHKKLPLGFTFSFPVRHEDIDKGILLNWTKGFKASGAEGNNVVGLLRDAIKRRGDFEMDVVAMVNDTVATMISCYYEDHQCEVGMIVGTGCNACYMEEMQNVELVEGDEGRMCVNTEWGAFGDSGELDEFLLEYDRLVDESSANPGQQLYEKLIGGKYMGELVRLVLLRLVDENLLFHGEASEQLRTRGAFETRFVSQVESDTGDRKQIYNILSTLGLRPSTTDCDIVRRACESVSTRAAHMCSAGLAGVINRMRESRSEDVMRITVGVDGSVYKLHPSFKERFHASVRRLTPSCEITFIESEEGSGRGAALVSAVACKKACMLGQ
Regarding B1, the binding result in assay [2] is “binds”.
